Each block holds one binder with its values, some of them ahead of it.
Assays:
[1] = HPLC after single-step affinity purification; main peak at about 16 min is the self-assembled tetramer (self-association through the p63 SADA domain)
[2] = molecular target: the molecule itself; assay: fluorescence correlation spectroscopy; half-life of multimer dissociation, one-phase decay fit
Description: (§1) FIG. 4 depicts a summary of fluorescence correlation spectroscopy (FCS) experiment regarding the SADA domains used here. […] Measurements were taken with a Zeiss LSM 880 confocal microscope. Normalized autocorrelations functions G(T) were then plotted to determine the diffusion times for each SADA-BiDE over time. All samples were compared against a monomeric anti-GD2 BiDE.

[3] = molecular target: the molecule itself; assay: fluorescence correlation spectroscopy; dissociation of the self-assembled multimer after dilution from 500 nM to 0.5 nM, Cy3-175Lu-Bn-DOTA label, one-phase decay fit
Description: as §1

[4] = HPLC after single-step affinity purification; main peak at about 16 min is the self-assembled tetramer (self-association through the p73 SADA domain)
IL-15 polypeptide = molecular target: T1, IL-15 polypeptide (Homo sapiens (Human), UniProt P40933 49-162); assay: production of the SADA-Cytokine complex; no direct binding assay described
T1 construct: also called sIL15; soluble IL15

[5] = molecular target: the molecule itself; assay: HPLC, traces normalized to peak intensity; main peak is the self-assembled multimer
[6] = HPLC after single-step affinity purification; main peak at about 16 min is the self-assembled tetramer (self-association through the p53 SADA domain)

T1 sequence (P40933 49-162 limits assumed): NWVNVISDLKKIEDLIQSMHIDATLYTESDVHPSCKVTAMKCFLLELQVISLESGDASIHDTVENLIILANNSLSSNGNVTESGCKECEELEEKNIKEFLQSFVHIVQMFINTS

B1: P63-BiDE (hu3F8-scFv, huC825-scFv, huP63-tet, GS linker, IgG3 spacer) (bispecific antibody)
chain: EIVMTQTPATLSVSAGERVTITCKASQSVSNDVTWYQQKPGQAPRLLIYSASNRYSGVPARFSGSGYGTEFTFTISSVQSEDFAVYFCQQDYSSFGCGTKLEIKRGGGGSGGGGSGGGGSGGGGSGGGGSGGGGSQVQLVESGPGVVQPGRSLRISCAVSGFSVTNYGVHWVRQPPGKCLEWLGVIWAGGITNYNSAFMSRLTISKDNSKNTVYLQMNSLRAEDTAMYYCASRGGHYGYALDYWGQGTLVTVSSGGGGSGGGGSGGGGSGGGGSHVQLVESGGGLVQPGGSLRLSCAASGFSLTDYGVHWVRQAPGKGLEWLGVIWSGGGTAYNTALISRFTISRDNSKNTLYLQMNSLRAEDTAVYYCARRGSYPYNYFDAWGCGTLVTVSSGGGGSGGGGSGGGGSQAVVTQEPSLTVSPGGTVTLTCGSSTGAVTASNYANWVQQKPGQCPRGLIGGHNNRPPGVPARFSGSLLGGKAALTLLGAQPEDEAEYYCALWYSDHWVIGGGTKLTVLGTPLGDTTHTSGRSPDDELLYLPVRGRETYEMLLKIKESLELMQYLPQHTIETYRQQQQQQHQHLLQKQGGSGGAPHHHHHH
notes: Self-assembles into a homo-tetramer of about 200 kDa; also called p63 SADA-BiDE
% tetramer (HPLC purity, main peak) [1]: 89.2%
half-life [2]: 3.08 h
koff [3]: 6.3e-05 s⁻¹

B2: P73-BiDE (hu3F8-scFv, huC825-scFv, huP73-tet, GS linker, IgG3 spacer) (bispecific antibody)
chain: EIVMTQTPATLSVSAGERVTITCKASQSVSNDVTWYQQKPGQAPRLLIYSASNRYSGVPARFSGSGYGTEFTFTISSVQSEDFAVYFCQQDYSSFGCGTKLEIKRGGGGSGGGGSGGGGSGGGGSGGGGSGGGGSQVQLVESGPGVVQPGRSLRISCAVSGFSVTNYGVHWVRQPPGKCLEWLGVIWAGGITNYNSAFMSRLTISKDNSKNTVYLQMNSLRAEDTAMYYCASRGGHYGYALDYWGQGTLVTVSSGGGGSGGGGSGGGGSGGGGSHVQLVESGGGLVQPGGSLRLSCAASGFSLTDYGVHWVRQAPGKGLEWLGVIWSGGGTAYNTALISRFTISRDNSKNTLYLQMNSLRAEDTAVYYCARRGSYPYNYFDAWGCGTLVTVSSGGGGSGGGGSGGGGSQAVVTQEPSLTVSPGGTVTLTCGSSTGAVTASNYANWVQQKPGQCPRGLIGGHNNRPPGVPARFSGSLLGGKAALTLLGAQPEDEAEYYCALWYSDHWVIGGGTKLTVLGTPLGDTTHTSGRHGDEDTYYLQVRGRENFEILMKLKESLELMELVPQPLVDSYRQQQQLLQRPGGSGGAPHHHHHH
notes: Self-assembles into a homo-tetramer of about 200 kDa; also called p73 SADA-BiDE
% tetramer (HPLC purity, main peak) [4]: 90.2%
half-life [2]: 2.03 h
koff [3]: 9.5e-05 s⁻¹

B5: P53-BiDE (hu3F8-scFv, huC825-scFv, huP53-tet, GS linker, IgG3 spacer) (bispecific antibody)
chain: EIVMTQTPATLSVSAGERVTITCKASQSVSNDVTWYQQKPGQAPRLLIYSASNRYSGVPARFSGSGYGTEFTFTISSVQSEDFAVYFCQQDYSSFGCGTKLEIKRGGGGSGGGGSGGGGSGGGGSGGGGSGGGGSQVQLVESGPGVVQPGRSLRISCAVSGFSVTNYGVHWVRQPPGKCLEWLGVIWAGGITNYNSAFMSRLTISKDNSKNTVYLQMNSLRAEDTAMYYCASRGGHYGYALDYWGQGTLVTVSSGGGGSGGGGSGGGGSGGGGSHVQLVESGGGLVQPGGSLRLSCAASGFSLTDYGVHWVRQAPGKGLEWLGVIWSGGGTAYNTALISRFTISRDNSKNTLYLQMNSLRAEDTAVYYCARRGSYPYNYFDAWGCGTLVTVSSGGGGSGGGGSGGGGSQAVVTQEPSLTVSPGGTVTLTCGSSTGAVTASNYANWVQQKPGQCPRGLIGGHNNRPPGVPARFSGSLLGGKAALTLLGAQPEDEAEYYCALWYSDHWVIGGGTKLTVLGTPLGDTTHTSGKPLDGEYFTLQIRGRERFEMFRELNEALELKDAQAGKEPGGSGGAPHHHHHH
notes: Self-assembles into a homo-tetramer of about 200 kDa; Its targets GD2 (ganglioside) and Bn-DOTA (hapten) are not proteins; only the self-association is recorded; also called p53 SADA-BiDE
half-life [2]: 1.73 h
koff [3]: 0.000112 s⁻¹
% tetramer (HPLC purity, main peak) [6]: 94.4%

Now from value to binder, other results behind:

binding result (IL-15 polypeptide): binds
B3: P73-Cytokine polypeptide (IL15Rα, huP73-tet, IgG3 spacer) (other)
chain: ITCPPPMSVEHADIWVKSYSLYSRERYICNSGFKRKAGTSSLTECVLNKATNVAHWTTPSLKCIRTPLGDTTHTSGRHGDEDTYYLQVRGRENFEILMKLKESLELMELVPQPLVDSYRQQQQLLQRPGGSGGAPHHHHHH
notes: The full complex is described as 8 pairs of IL15Rα/IL15; also called SADA-Cytokine
binding result [5]: binds

binding result (IL-15 polypeptide): binds
B4: P63-Cytokine polypeptide (IL15Rα, huP63-tet, IgG3 spacer) (other)
chain: ITCPPPMSVEHADIWVKSYSLYSRERYICNSGFKRKAGTSSLTECVLNKATNVAHWTTPSLKCIRTPLGDTTHTSGRSPDDELLYLPVRGRETYEMLLKIKESLELMQYLPQHTIETYRQQQQQQHQHLLQKQGGSGGAPHHHHHH
notes: as for B3
binding result [5]: binds

binding result (IL-15 polypeptide): binds
B6: P53-Cytokine polypeptide (IL15Rα, huP53-tet, IgG3 spacer) (other)
chain: ITCPPPMSVEHADIWVKSYSLYSRERYICNSGFKRKAGTSSLTECVLNKATNVAHWTTPSLKCIRTPLGDTTHTSGKPLDGEYFTLQIRGRERFEMFRELNEALELKDAQAGKEPGGSGGAPHHHHHH
notes: The full complex is described as 8 pairs of IL15Rα/IL15 (about 200 kDa); also called SADA-Cytokine
binding result [5]: binds
